Measurements taken from patent publication US20170241986A1, “METHODS FOR IDENTIFYING COMPOUNDS THAT ALTER THE ACTIVITY OF IRHOM POLYPEPTIDES AND USE THEREOF” (The Jackson Laboratory, priority 2014, published 2017).

T1: HA-tagged human AREG (amphiregulin) (human) (UniProt P15514)
T1 sequence (looked up): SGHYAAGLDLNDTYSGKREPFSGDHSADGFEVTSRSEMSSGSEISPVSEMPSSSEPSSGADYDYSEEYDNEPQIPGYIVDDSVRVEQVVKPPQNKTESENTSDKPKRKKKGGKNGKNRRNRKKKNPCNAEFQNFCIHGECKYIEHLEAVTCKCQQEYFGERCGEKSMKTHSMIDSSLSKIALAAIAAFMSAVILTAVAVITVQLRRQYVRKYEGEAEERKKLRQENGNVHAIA


Experiments:
AREG [1] = assay: Immunoblot of intracellular pro-AREG in co-transfected cells; format: cell-based, human; conditions: co-expression with AREG, DMSO or 10 μM MM
Description: SDS-PAGE and Immunoblotting: Cells were washed once with ice cold PBS and incubated with RIPA buffer (Cell Signaling, Danvers, Mass.) containing complete mini protease inhibitors (Roche Applied Science, Indianapolis, Ind.) on ice for 10 min. Cell lysate was centrifuged at 14,000 g for 10 min at 4° C. Supernatant was collected and stored at −80° C. until further use. Total amount of protein was quantified using a Qubit Fluorometer (Life technologies), and 10 μg of protein was loaded onto 4-12% pre-cast gels (Lonza, Allendale, N.J.) and run at 140V until the low molecular weight Precision plus protein standard (Bio-Rad) reached the bottom of the gel. Resolved proteins were electrophoretically transferred onto PVDF membranes using an iBLOT (Life technologies) before blocking in 5% BSA (Cell Signaling Technology) in TBST (20 mM Tris, 137 mM sodium chloride, and 0.1% Tween-20) for 1 h at room temperature. Membranes were then incubated overnight at 4° C. in primary antibodies (1:1000) followed by three 15 min washes in TBST and incubation in secondary antibodies (1:2000) for 1 h at room temperature. After another wash in TBST for 90 min, membranes were exposed to SuperSignal West Femto Substrate (Fisher Scientific) for 5 min for detection of horseradish peroxidase generated signal. Membranes were re-probed with actin-specific antibody. […]

AREG [2] = assay: ELISA of AREG in conditioned medium of transfected 293T cells (in vitro cleavage assay); format: cell-based, human
From the text: To test whether Rhbdf2^cub, with its short N-terminal domain, could induce secretion of AREG independently of metalloprotease activity, we performed in vitro cleavage assays in the presence or absence of marimastat (MM), a potent broad-spectrum metalloprotease inhibitor that can block both ADAM17- and ADAM10-dependent shedding of substrates. Because of the significant homology between the mouse and human RHBDF2 genes we transfected 293T cells with human AREG either alone or with the human wildtype (HuWt) or human Cub (HuCub) RHBDF2 genes (FIG. 5A), and measured AREG levels in conditioned medium. In the absence of MM, we observed no difference in AREG levels between AREG-expressing and AREG/HuCub co-expressing cells, whereas co-expression of HuWt and AREG reduced AREG levels by ˜60% (FIG. 5B).
(§1) Human AREG, HB-EGF and EGF ELISA: Transient transfections were performed in 293T cells seeded in 24-well plates. Using lipofectamine LTX with Plus reagent 16.5 fmol of HuWt or HuCub was co-transfected with 25 ng of AREG or 50 ng of HB-EGF or 200 ng of EGF. The total amount of transfected DNA was made up to equal amount per well with pCMV6-AC-HA vector. After 24 h, DMSO or 10 μM MM in 1 ml of fresh medium replaced the old medium. After 24 h, 100 μl of supernatant was either undiluted (HB-EGF and EGF) or diluted five-fold (AREG) and subjected to ELISA as per the manufacturer's instructions (DY262, DY259, and DY236).

AREG [3] = assay: Co-immunoprecipitation of iRhom2-AREG complex; format: binding, human; conditions: COS7 cell lysates, anti-Flag immunoprecipitation
Description: Immunoprecipitation: 293T and COS7 cell transfections were carried according to the manufacturer's instructions (Life technologies). Cells plated in 6 well plates were treated with 400 μls of Cell Lysis Buffer (Cell Signaling, Danvers, Mass.) containing complete mini protease inhibitors (Roche Applied Science, Indianapolis, Ind.), incubated on ice for 10 min and centrifuged at 14,000 g for 10 min in a cold room. Cell supernatant was incubated overnight with 20 μls of magnetic beads conjugated with Anti-DDK antibody (Origene) in a cold room on a rocking platform. Following overnight incubation, beads/slurry was washed with three times with TBS-T, and protein was collected using 2×SDS-PAGE loading buffer.

[4] = target: T1, HA-tagged human AREG (amphiregulin) (human); assay: cell-based or functional assay
HB-EGF = assay: ELISA of HB-EGF in conditioned medium of transfected 293T cells; format: cell-based, human; conditions: 10 μM marimastat
Description: as §1

EGF = assay: ELISA of EGF in conditioned medium of transfected 293T cells; format: cell-based, human; conditions: 10 μM marimastat
Description: as §1

[5] = co-expression with AREG, 10 μM marimastat

AREG levels after co-transfection [4]	AREG levels in conditioned medium (ELISA) of co-transfected 293T cells in the presence of marimastat [4]	Molecule	intracellular levels of AREG compared with HuWt (AREG [1])	levels of AREG in conditioned medium compared with HuWt (AREG [2]; [5])	physical complex with AREG (AREG [3])	secretion of HB-EGF compared with empty vector transfected controls (HB-EGF)	secretion of AREG compared with empty vector transfected controls (AREG [2]; 293T cells, 10 μM marimastat)	AREG levels versus AREG-expressing cells (AREG [2]; 293T cells, co-expression with AREG, absence of MM)	secretion of EGF compared with empty vector transfected controls (EGF)
–	–	p.I186T: HuWt clone containing the human tylosis missense mutation RHBDF2 p.I186T (protein, left off: small tags and cut ends) MASADKNGGSVSSVSSSRLQSRKPPNLSITIPPPEKETQAPGEQDSMLPEGFQNRRLKKSQPRTWAAHTTACPPSFLPKRKNPAYLKSVSLQEPRSRWQESSEKRPGFRRQASLSQSIRKGAAQWFGVSGDWEGQRQQWQRRSLHHCSMRYGRLKASCQRDLELPSQEAPSFQGTESPKPCKMPKTVDPLARGRAFRHPEEMDRPHAPHPPLTPGVLSLTSFTSVRSGYSHLPRRKRMSVAHMSLQAAAALLKGRSVLDATGQRCRVVKRSFAFPSFLEEDVVDGADTFDSSFFSKEEMSSMPDDVFESPPLSASYFRGIPHSASPVSPDGVQIPLKEYGRAPVPGPRRGKRIASKVKHFAFDRKKRHYGLGVVGNWLNRSYRRSISSTVQRQLESFDSHRPYFTYWLTFVHVIITLLVICTYGIAPVGFAQHVTTQLVLRNKGVYESVKYIQQENFWVGPSSIDLIHLGAKFSPCIRKDGQIEQLVLRERDLERDSGCCVQNDHSGCIQTQRKDCSETLATFVKWQDDTGPPMDKSDLGQKRTSGAVCHQDPRTCEEPASSGAHIWPDDITKWPICTEQARSNHTGFLHMDCEIKGRPCCIGTKGSCEITTREYCEFMHGYFHEEATLCSQVHCLDKVCGLLPFLNPEVPDQFYRLWLSLFLHAGVVHCLVSVVFQMTILRDLEKLAGWHRIAIIFILSGITGNLASAIFLPYRAEVGPAGSQFGLLACLFVELFQSWPLLERPWKAFLNLSAIVLFLFICGLLPWIDNIAHIFGFLSGLLLAFAFLPYITFGTSDKYRKRALILVSLLAFAGLFAALVLWLYIYPINWPWIEHLTCFPFTSRFCEKYELDQVLH	lower intracellular levels	greater levels of AREG in conditioned medium	forms physical complexes with AREG	–	–	–	–
2 to 3 fold	2 fold	Flag-tagged HuCub (human version of cub cDNA; N-terminal-truncated human iRhom2) (enzyme, not shown: small tags and cut ends) MSSMPDDVFESPPLSASYFRGIPHSASPVSPDGVQIPLKEYGRAPVPGPRRGKRIASKVKHFAFDRKKRHYGLGVVGNWLNRSYRRSISSTVQRQLESFDSHRPYFTYWLTFVHVIITLLVICTYGIAPVGFAQHVTTQLVLRNKGVYESVKYIQQENFWVGPSSIDLIHLGAKFSPCIRKDGQIEQLVLRERDLERDSGCCVQNDHSGCIQTQRKDCSETLATFVKWQDDTGPPMDKSDLGQKRTSGAVCHQDPRTCEEPASSGAHIWPDDITKWPICTEQARSNHTGFLHMDCEIKGRPCCIGTKGSCEITTREYCEFMHGYFHEEATLCSQVHCLDKVCGLLPFLNPEVPDQFYRLWLSLFLHAGVVHCLVSVVFQMTILRDLEKLAGWHRIAIIFILSGITGNLASAIFLPYRAEVGPAGSQFGLLACLFVELFQSWPLLERPWKAFLNLSAIVLFLFICGLLPWIDNIAHIFGFLSGLLLAFAFLPYITFGTSDKYRKRALILVSLLAFAGLFAALVLWLYIYPINWPWIEHLTCFPFTSRFCEKYELDQVLH	–	–	–	–	–	–	–
–	–	HuCub: human RHBDF2 construct mimicking the mutant Rhbdf2cub transcript; N-terminal-truncated iRhom2 (protein, left off: small tags and cut ends, human RHBDF2 construct mimicking the mutant Rhbdf2cub transcript; N-terminal-truncated iRhom2) MSSMPDDVFESPPLSASYFRGIPHSASPVSPDGVQIPLKEYGRAPVPGPRRGKRIASKVKHFAFDRKKRHYGLGVVGNWLNRSYRRSISSTVQRQLESFDSHRPYFTYWLTFVHVIITLLVICTYGIAPVGFAQHVTTQLVLRNKGVYESVKYIQQENFWVGPSSIDLIHLGAKFSPCIRKDGQIEQLVLRERDLERDSGCCVQNDHSGCIQTQRKDCSETLATFVKWQDDTGPPMDKSDLGQKRTSGAVCHQDPRTCEEPASSGAHIWPDDITKWPICTEQARSNHTGFLHMDCEIKGRPCCIGTKGSCEITTREYCEFMHGYFHEEATLCSQVHCLDKVCGLLPFLNPEVPDQFYRLWLSLFLHAGVVHCLVSVVFQMTILRDLEKLAGWHRIAIIFILSGITGNLASAIFLPYRAEVGPAGSQFGLLACLFVELFQSWPLLERPWKAFLNLSAIVLFLFICGLLPWIDNIAHIFGFLSGLLLAFAFLPYITFGTSDKYRKRALILVSLLAFAGLFAALVLWLYIYPINWPWIEHLTCFPFTSRFCEKYELDQVLH	lower intracellular levels	greater levels of AREG in conditioned medium	forms physical complexes with AREG	selectively increased secretion of AREG and HB-EGF	selectively increased secretion of AREG	no difference	not EGF
